± gives the standard deviation of the averaged measurements.
What follows are sequences tested on Saccharomyces cerevisiae (assay: protein stability index of tFT-peptide fusion (C-terminal peptide) (PSI (0-1 scale)); higher = more stable (slower turnover)). Settings: genetic background: wild type; temperature: 30 C.
Description: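 Multiplexed protein stability (MPS) profiling in S. cerevisiae. Random 12-aa peptides (tFT-X12 library) are fused to the C-terminus of a sfGFP-mCherry tandem fluorescent timer, after mCherry and a GGGS linker. Cells are FACS-sorted into 8 mCherry/sfGFP bins and deep-sequenced. The protein stability index (PSI) is the read-weighted bin average, scaled from 0 (unstable) to 1 (stable). Only peptides with >10 reads are reported; cells were grown at 30 °C in SC-His with glucose.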
GVLLCVDGSGGE gave a protein stability index of 0.762 ± 0.054.
For GVMASLVRMSQG, the protein stability index was 0.679 ± 0.11.
For GVPAPVFCRSIF, the protein stability index was 0.618 ± 0.015.
Sequence GVPPFSPPPPPH has a protein stability index of 0.683 ± 0.017.
GVQCLVFIGRPK gave a protein stability index of 0.69 ± 0.093.
Sequence GVQEGGGVARGG has a protein stability index of 0.639 ± 0.018.
In the case of GVRGALGCAGRV, the protein stability index is reported as 0.679 ± 0.02.
For GVRNGFMSVSLY, the protein stability index was 0.651 ± 0.01.
GVSGGDGSKCKE gave a protein stability index of 0.682 ± 0.016.
With GVSLFFITQFET the protein stability index was 0.712 ± 0.012.
Work on GVSPSCILPLIL yielded a protein stability index of 0.653 ± 0.011.
Sequence GVSPSPPSPPPH has a protein stability index of 0.741 ± 0.062.
In the case of GVSRGTGIGEGE, the protein stability index is reported as 0.6774 ± 0.0039.
GVVCWRFLLADV gave a protein stability index of 0.596 ± 0.028.
GVVGCSCLGCGF showed a protein stability index of 0.717 ± 0.054.
Sequence GVVGVGRCWGLV has a protein stability index of 0.628 ± 0.08.
GVWCLDVYGRRC was tested, and the protein stability index was 0.6837 ± 0.0022.
Sequence GVYWGEIDDVER has a protein stability index of 0.717 ± 0.015.
Sequence GWAFDVAGQSAR has a protein stability index of 0.683 ± 0.0097.
GWAGGEGWRGEG gave a protein stability index of 0.6964 ± 0.0062.
GWALGRGRRVSG showed a protein stability index of 0.691 ± 0.033.
In the case of GWDFRERLGGSG, the protein stability index is reported as 0.71 ± 0.028.
Work on GWGGCDSVVVSG yielded a protein stability index of 0.697 ± 0.033.
With GWGGGCGCGRGI the protein stability index was 0.687 ± 0.058.
GWGVGGKVGQAG was tested, and the protein stability index was 0.6814 ± 0.0047.
In the case of GWLAERGPLEGG, the protein stability index is reported as 0.728 ± 0.016.
GWLVVLGLVQDL showed a protein stability index of 0.559 ± 0.039.
For GWMTGMEERGGG, the protein stability index was 0.674 ± 0.053.
Sequence GWNCTAFRTLHI has a protein stability index of 0.662 ± 0.061.
GWNGAGSGCVRA showed a protein stability index of 0.659 ± 0.068.
In the case of GWREPQHGARGP, the protein stability index is reported as 0.719 ± 0.022.
GWRGGGSRELKW gave a protein stability index of 0.743 ± 0.031.
Work on GWWCAGVREWTR yielded a protein stability index of 0.8 ± 0.013.
GYCGRGCWGVGC was tested, and the protein stability index was 0.7093 ± 0.0056.
For GYLPPPDSLSSS, the protein stability index was 0.672 ± 0.023.
In the case of GYLVECKRLCVW, the protein stability index is reported as 0.588 ± 0.024.
GYNARHILGRVG gave a protein stability index of 0.699 ± 0.011.
GYNCKWGRTNVT was tested, and the protein stability index was 0.6782 ± 0.0024.
GYPASGVLIVFF gave a protein stability index of 0.512 ± 0.026.
With GYPLRSHCLIVD the protein stability index was 0.68 ± 0.0081.
In the case of GYSPMGFSFFPV, the protein stability index is reported as 0.673 ± 0.047.
HAPLIPRFALIP showed a protein stability index of 0.677 ± 0.013.
HAPSRAPFPTAS gave a protein stability index of 0.71 ± 0.067.
HCFCFSVSSFFG showed a protein stability index of 0.667 ± 0.026.
Work on HCFFSVPFRSGF yielded a protein stability index of 0.691 ± 0.045.
HCLLLSLVFFFW showed a protein stability index of 0.727 ± 0.03.
For HCSYSSSRPSPR, the protein stability index was 0.543 ± 0.043.
For HDWPQTTRADQS, the protein stability index was 0.677 ± 0.036.
HFGRYLSSVFGV showed a protein stability index of 0.679 ± 0.05.
In the case of HFGSSLPPFCCI, the protein stability index is reported as 0.76 ± 0.021.
HFKHLALVQQFP was tested, and the protein stability index was 0.69 ± 0.048.
With HFPPPPRPSAPP the protein stability index was 0.681 ± 0.036.
In the case of HFSPLILSSYTV, the protein stability index is reported as 0.693 ± 0.037.
Sequence HFVDAIPEGIHA has a protein stability index of 0.583 ± 0.023.
In the case of HGCQGKVRQSHR, the protein stability index is reported as 0.651 ± 0.039.
For HGCVWCSGLFGV, the protein stability index was 0.739 ± 0.029.
Work on HGHLGKFLGARE yielded a protein stability index of 0.689 ± 0.022.
HGISLVWEVGEG gave a protein stability index of 0.6439 ± 0.0035.
HGLPSFANPGNF gave a protein stability index of 0.716 ± 0.0095.
Work on HGNWGSSPVVSG yielded a protein stability index of 0.632 ± 0.055.
For HGPFLSNLLPDK, the protein stability index was 0.799 ± 0.085.
HGVVGVFGLVSG was tested, and the protein stability index was 0.664 ± 0.0075.
HIGSYTFILPSS gave a protein stability index of 0.759 ± 0.064.
Work on HIHHVPGPHITA yielded a protein stability index of 0.706 ± 0.0088.
With HIHQDPGVIRWG the protein stability index was 0.7216 ± 0.0015.
HIHRGDRVIGDV gave a protein stability index of 0.682 ± 0.01.
Sequence HINVAVAKYSRQ has a protein stability index of 0.697 ± 0.047.
HIPPFSPCPPTG was tested, and the protein stability index was 0.707 ± 0.02.
For HITMERTERTKY, the protein stability index was 0.7145 ± 0.0057.
In the case of HKEHLDNPRLRP, the protein stability index is reported as 0.714 ± 0.012.
HKKAWVVTVGIS showed a protein stability index of 0.602 ± 0.042.
HKRCCIPTNDSQ gave a protein stability index of 0.6991 ± 0.0063.
In the case of HKTNTSRKSRRT, the protein stability index is reported as 0.737 ± 0.12.
In the case of HLCLACYRSVDM, the protein stability index is reported as 0.688 ± 0.011.
For HLFYASCNSSAS, the protein stability index was 0.67112 ± 0.00053.
For HLLCPLSPYICH, the protein stability index was 0.681 ± 0.02.
Sequence HLLNPVRSPLPA has a protein stability index of 0.63 ± 0.063.
With HLPLPPRLLTHV the protein stability index was 0.654 ± 0.042.
HLPPPPTPFPLT showed a protein stability index of 0.757 ± 0.16.
Work on HMCPWVWPVRDQ yielded a protein stability index of 0.691 ± 0.024.
HMGTNSSTGDRN gave a protein stability index of 0.636 ± 0.032.

— the supplement of paper PMC10724198
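Note: PSI is a weighted mean of sequencing reads over stability bins, variants kept only with over 10 reads, mCherry proximal and sfGFP distal, peptide attached via GGGS linker.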
